The results in this text go back to PMC6304933.

The target in this test is Thermosynechococcus elongatus BP-1 Fed2 (Thermosynechococcus elongatus BP-1). Description: SDS/PAGE.

One may read the stoichiometry N as the number of molecules, sites or subunits per partner or assembly. As for “Thermosynechococcus elongatus BP-1 Fed2 (natural protein)”, the stoichiometry N worked out at 2.
